The values below come from US20130136748A1 (Ablynx, published 2013).

In assay [1] the target is T1, human HER1 (human, UniProt P00533 25-1210).
T1 construct: also called EGFR; ErbB1
In words: FACS, CHO-HER1. In general terms: In flow cytometry, cells or beads pass a laser one at a time.

Assay [2] has as its target T2, human HER2 (human, UniProt P04626 23-1255).
T2 construct: also called hHER2
Put plainly: FACS, CHO-HER2.

Assay [3] deals with T3, human HER4 (human, UniProt Q15303 26-1308). Put plainly: FACS, CHO-HER4.
Assay [4] deals with T1, human HER1. In words: FACS CHO-HER1, 222 nM.
The target of assay [5] is T1, human HER1. In words: FACS CHO-HER1, 667 nM.
The target of assay [6] is T2, human HER2. In words: FACS CHO-HER2, 222 nM.
The target of assay [7] is T2, human HER2. In words: FACS CHO-HER2, 667 nM.
Assay [8] concerns the target T3, human HER4. In words: FACS CHO-HER4, 222 nM.
Assay [9] concerns the target T3, human HER4. In words: FACS CHO-HER4, 667 nM.
Assay [10] has as its target T1, human HER1. Put plainly: FACS CHO-HER1, 2000 nM.
For assay [11], the target named is T2, human HER2. In words: FACS CHO-HER2, 2000 nM.
The target of assay [12] is T3, human HER4. In words: FACS CHO-HER4, 2000 nM.
The target of assay [13] is T4, hHER3 full length (human, UniProt P21860 20-1342). Put plainly: cell-based or functional assay.
In assay [14] the target is T4, hHER3 full length. Put plainly: cell-based or functional assay. The source holds these as a separate data set.
Assay [15] deals with T5, hHER3 ECD (human HER3 extracellular domain) (human, UniProt P21860 20-643).
T5 construct: also called recombinant HER3-ECD
In words: ELISA, coated hHER3-ECD. A general note: In an ELISA, binding on a coated surface is turned into a signal by an enzyme label.

Assay [16] deals with T6, cHER3ECD (Maccaca fascicularis HER3 extracellular domain) (Macaca fascicularis, UniProt P21860 20-643 (human entry)).
T6 construct: also called cyno HER3ECD; cyno HER3-ECD
T6 chain: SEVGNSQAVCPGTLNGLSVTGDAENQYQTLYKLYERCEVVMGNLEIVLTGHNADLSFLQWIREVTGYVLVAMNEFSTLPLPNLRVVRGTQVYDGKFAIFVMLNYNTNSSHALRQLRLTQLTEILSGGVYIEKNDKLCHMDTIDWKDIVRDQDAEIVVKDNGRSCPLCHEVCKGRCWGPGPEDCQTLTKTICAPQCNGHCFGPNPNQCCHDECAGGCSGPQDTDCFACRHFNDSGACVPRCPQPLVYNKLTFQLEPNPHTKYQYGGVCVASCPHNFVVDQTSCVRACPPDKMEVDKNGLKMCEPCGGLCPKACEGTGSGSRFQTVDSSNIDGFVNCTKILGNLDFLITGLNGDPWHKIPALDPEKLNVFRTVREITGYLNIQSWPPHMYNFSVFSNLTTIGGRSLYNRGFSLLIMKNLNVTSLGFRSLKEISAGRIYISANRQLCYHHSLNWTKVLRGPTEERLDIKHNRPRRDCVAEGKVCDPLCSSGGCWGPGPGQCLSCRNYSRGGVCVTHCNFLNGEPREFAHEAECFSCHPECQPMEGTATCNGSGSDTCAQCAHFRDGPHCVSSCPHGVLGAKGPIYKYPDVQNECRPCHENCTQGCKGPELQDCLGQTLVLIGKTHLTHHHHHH
In words: ELISA, coated cHER3-ECD.

For assay [17], the target named is T7, Chimeric chicken Her3-human domain 1 (AA1-206 human, AA207-642 chicken) (chicken/human chimera).
T7 construct: Transmembrane and extracellular regions, on HEK293 cells
T7 chain: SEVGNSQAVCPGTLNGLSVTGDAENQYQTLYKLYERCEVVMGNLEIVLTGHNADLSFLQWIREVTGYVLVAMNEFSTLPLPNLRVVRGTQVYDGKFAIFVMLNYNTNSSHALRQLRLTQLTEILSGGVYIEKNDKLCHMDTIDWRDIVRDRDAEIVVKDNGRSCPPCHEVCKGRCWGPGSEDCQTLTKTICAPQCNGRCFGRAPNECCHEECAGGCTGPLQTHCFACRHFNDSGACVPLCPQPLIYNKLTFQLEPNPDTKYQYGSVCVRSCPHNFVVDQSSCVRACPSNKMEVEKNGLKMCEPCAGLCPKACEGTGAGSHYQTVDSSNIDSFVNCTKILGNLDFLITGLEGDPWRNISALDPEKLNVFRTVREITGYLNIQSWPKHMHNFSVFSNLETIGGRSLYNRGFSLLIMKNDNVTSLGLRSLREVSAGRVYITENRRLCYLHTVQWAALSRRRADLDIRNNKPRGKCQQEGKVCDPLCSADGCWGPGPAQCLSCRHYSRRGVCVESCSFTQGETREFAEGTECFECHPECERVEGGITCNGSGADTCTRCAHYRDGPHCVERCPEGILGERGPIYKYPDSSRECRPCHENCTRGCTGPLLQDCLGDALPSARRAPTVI
In words: FACS, HEK293 with chimeric HER3.

The target in assay [18] is T8, human HER3-Fc (R&D Systems, 348-RB) (human, UniProt P21860 20-643).
T8 construct: Bought; also called hHER3-Fc; Fc-HER3; Fc part of the bought chimera not given, not described
In words: SPR, HER3-Fc captured by anti-Fc.

Assay [19] concerns the target T4, hHER3 full length. In words: FACS, 400 nM, competitor 04C07-biotin.
Assay [20] has as its target T4, hHER3 full length. Put plainly: FACS, 400 nM, competitor 04F10-biotin.
Assay [21] deals with T4, hHER3 full length. In words: FACS, 400 nM, competitor 17C08-biotin.
For assay [22], the target named is T4, hHER3 full length. In words: FACS, 400 nM, competitor 18E08-biotin.
In assay [23] the target is T4, hHER3 full length. In words: FACS, 400 nM, competitor 21B02-biotin.
Assay [24] has as its target T4, hHER3 full length. In words: FACS, 400 nM, competitor 23F05-biotin.
In assay [25] the target is T4, hHER3 full length. In words: FACS competition with HRG1-β1-EGF, CHO-HER3.
The target of assay [26] is T4, hHER3 full length. Put plainly: cell-based or functional assay. This is another data set of the same source.
In assay [27] the target is T8, human HER3-Fc (R&D Systems, 348-RB). Put plainly: HRG competition alphascreen.
Assay [28] shares this target. Put plainly: HRG competition alphascreen. The source holds these as a separate data set. For orientation: Alpha assays give light when donor and acceptor beads are brought close together.
The target is the same in assay [29]. Put plainly: HRG competition alphascreen. The source holds these as a separate data set.

Where two headings read alike, the source gives them in different places.

T3 sequence (Q15303 26-1308 limits assumed): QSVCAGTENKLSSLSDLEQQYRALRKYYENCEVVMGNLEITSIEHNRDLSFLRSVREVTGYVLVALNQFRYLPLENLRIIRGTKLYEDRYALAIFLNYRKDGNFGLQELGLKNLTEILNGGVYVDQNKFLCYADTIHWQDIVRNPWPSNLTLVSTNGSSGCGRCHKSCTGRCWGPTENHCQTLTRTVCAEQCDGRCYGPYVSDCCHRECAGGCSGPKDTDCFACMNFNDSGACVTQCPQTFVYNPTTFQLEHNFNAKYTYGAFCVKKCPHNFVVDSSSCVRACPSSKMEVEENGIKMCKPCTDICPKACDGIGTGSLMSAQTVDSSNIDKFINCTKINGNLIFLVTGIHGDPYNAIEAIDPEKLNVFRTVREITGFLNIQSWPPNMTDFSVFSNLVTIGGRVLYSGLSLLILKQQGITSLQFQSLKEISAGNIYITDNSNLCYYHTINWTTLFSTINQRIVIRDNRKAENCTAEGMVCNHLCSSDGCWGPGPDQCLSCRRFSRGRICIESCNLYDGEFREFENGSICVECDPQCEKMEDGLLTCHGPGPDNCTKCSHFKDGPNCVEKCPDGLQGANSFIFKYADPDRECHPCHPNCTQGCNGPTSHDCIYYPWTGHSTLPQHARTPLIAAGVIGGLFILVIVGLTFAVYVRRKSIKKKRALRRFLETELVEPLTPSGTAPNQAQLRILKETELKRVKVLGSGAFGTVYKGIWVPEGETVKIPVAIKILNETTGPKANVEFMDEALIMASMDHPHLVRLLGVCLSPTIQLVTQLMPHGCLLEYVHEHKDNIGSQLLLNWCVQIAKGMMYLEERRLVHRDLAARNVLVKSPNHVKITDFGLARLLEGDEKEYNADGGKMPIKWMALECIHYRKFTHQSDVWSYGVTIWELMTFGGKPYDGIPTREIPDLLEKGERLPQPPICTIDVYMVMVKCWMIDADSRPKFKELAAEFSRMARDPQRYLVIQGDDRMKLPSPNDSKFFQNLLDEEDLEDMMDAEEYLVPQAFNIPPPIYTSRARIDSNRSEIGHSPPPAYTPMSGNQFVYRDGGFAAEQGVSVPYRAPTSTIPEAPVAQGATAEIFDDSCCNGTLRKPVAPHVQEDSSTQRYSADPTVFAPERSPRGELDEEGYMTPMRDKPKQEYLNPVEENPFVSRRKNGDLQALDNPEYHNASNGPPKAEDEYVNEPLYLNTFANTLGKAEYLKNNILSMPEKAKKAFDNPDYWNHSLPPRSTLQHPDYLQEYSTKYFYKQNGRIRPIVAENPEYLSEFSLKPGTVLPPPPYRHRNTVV

B1: 18B05 (VHH)
VHH: EVQLVESGGGLVQAGGSLRLSCAASGLTFGSAPMGWYRQAPGKERELVAYISGDERIWYGDSVKGRFTISRDTTKNTLYLQMNSLKPEDTAVYYCVSDVKVRHWGQGTQVTVSS
As a reminder, the EC50 is the concentration giving half of the maximal effect. A high value points to lower potency in that assay. As a reminder, the Kd is the concentration at which binding is half-saturated. Read a high Kd as lower affinity. For orientation: kon means the second-order rate constant of association. High values mean fast association, low ones slow association. Usually IC50 stands for the point on the concentration scale where inhibition reaches its midpoint. A high value points to weaker potency in that assay. For the molecule B1, the binding result with human HER1 [1] was “no binding (tested: 2000 nM)”; with human HER2 [2] it was “no binding (tested: 2000 nM)”; with human HER4 [3] it was “no binding (tested: 2000 nM)”; in [17], “binds”. The MCF is 82 in the assay with human HER1 [4]; 101 with human HER1 [5]; 61 in the assay with human HER2 [6]; 63 in the assay with human HER2 [7]; 60 in the assay with human HER4 [8]; 95 with human HER4 [9]. Further, the figures for the MCF with human HER1 [10], with human HER2 [11] and with human HER4 [12] were 61, 77 and 96, respectively. For the same molecule, the “IC50, HRG1-β1 induced pHER3, MCF-7” value with hHER3 full length [13] was found to be 5.18e-09 M. Moreover, the “IC50, HRG1-β1 induced pHER3, MDA-MB468” value with hHER3 full length [13] turned out to be 3e-08 M. Moreover, the “IC50, HRG1-β1 induced pAkt, MCF-7” value in the assay with hHER3 full length [14] came out at 6.02e-09 M. In addition, in the assay with hHER3 full length [14], the “inhibition of HRG1-β1 induced pERK1/2, MCF-7” value was less than 50 % inhibition. Also, the 50% effective concentration (EC50) in [15] came out at 400 pM; in assay [16], 450 pM. Moreover, the Kd in assay [18] came out at 290 pM. In assay [18], the on-rate (kon) is 490000 M⁻¹ s⁻¹. In addition, the “% competition” value with hHER3 full length [19] is 98%; with hHER3 full length [20], 31%; in the assay with hHER3 full length [21], 0%; with hHER3 full length [22], 0%; with hHER3 full length [23], 0%; with hHER3 full length [24] it was 0%. The molecule further displayed an IC50 with hHER3 full length [25] of 16100 pM.

B2: 17E08 (VHH)
VHH: EVQLVESGGGLVQPGGSLRLSCSASGSIFGLNAMGWYRQTPGKERELVAGITSITRVGSTRYADSAKGRFTISGDYAKNTVYLQMNSLKPEDTGVYYCRMSIVKSGGADYWGQGTQVTVSS
With B2, the binding result with human HER1 [1] is reported as “no binding (tested: 2000 nM)”; with human HER2 [2], “no binding (tested: 2000 nM)”; with human HER4 [3], “no binding (tested: 2000 nM)”; in assay [17], “binds”. Moreover, the MCF was 66 with human HER1 [4]; 52 with human HER1 [5]; 51 with human HER2 [6]; 51 with human HER2 [7]; 110 in the assay with human HER4 [8]; 117 with human HER4 [9]. Besides, the figures for the MCF with human HER1 [10], in the assay with human HER2 [11] and in the assay with human HER4 [12] were 59, 73 and 242, respectively. For the same molecule, the “IC50, HRG1-β1 induced pHER3, MCF-7” value with hHER3 full length [13] was found to be 4.51e-09 M. In addition, in the assay with hHER3 full length [13], the “IC50, HRG1-β1 induced pHER3, MDA-MB468” value worked out at 2.46e-08 M. For the same molecule, in the assay with hHER3 full length [14], the “IC50, HRG1-β1 induced pAkt, MCF-7” value was 5.78e-09 M. Further, the “IC50, HRG1-β1 induced pERK1/2, MCF-7” value in the assay with hHER3 full length [14] came to 2.78e-09 M. Further, the EC50 was 1020 pM in assay [15] and 1150 pM in assay [16]. The molecule further yielded a Kd in assay [18] of 110 pM. The molecule further registered a kon in assay [18] of 363000 M⁻¹ s⁻¹. Further, the “% competition” value in the assay with hHER3 full length [19] came out at 100%; with hHER3 full length [20], 32%; with hHER3 full length [21], 0%; with hHER3 full length [22] it was 0%; with hHER3 full length [23] it was 5%; with hHER3 full length [24], 0%. The same molecule registered an IC50 in the assay with hHER3 full length [25] of 75900 pM.

B3: HER3MS00042 (VHH)
VHH: EVQLVESGGGLVQPGGSLRLSCAASGFTFSSYPMSWVRQAPGKGPAWVSTVSPGGITTSYADSVKGRFTISRDNSKNTLYLQMNSLRPEDTAVYYCLRDLNNRGQGTLVTVSS
notes: 04C07 + A14P, A74S, K83R, Q108L; also called HER3MS0042; 04C07 basic variant
B3: in the assay with hHER3 full length [26], the “IC50 pHER3, HRG1-β1 stimulated MCF7” value stood at 6.81e-09 M. For the same molecule, the 50% inhibitory concentration (IC50) in assay [27] and in assay [28] was 310 pM each time.

B4: HER3MS00044 (VHH)
VHH: EVQLVESGGGLVQPGGSLRLSCAASGFTFSSYPMSWVRQAPGKGPAWVSTVSPGGITTSYADSVKGRFTISRDNSKNTLYLQMNSLRPEDTAVYYCARDLNNRGQGTLVTVSS
notes: 04C07 basic + L93A; also called HER3MS0044
B4 displayed an IC50 in assay [27] of 1000 pM.

B5: HER3MS00043 (VHH)
VHH: EVQLVESGGGLVQPGGSLRLSCAASGFTFSSYPMSWVRQAPGKGPEWVSTVSPGGITTSYADSVKGRFTISRDNSKNTLYLQMNSLRPEDTAVYYCLRDLNNRGQGTLVTVSS
notes: 04C07 basic + A46E; also called HER3MS0043
As for B5, the IC50 in assay [27] came out at 1020 pM.

B6: HER3MS00046 (VHH)
VHH: EVQLVESGGGLVQPGGSLRLSCAASGRTYYLNAMGWFRQGPGKDREFVAAIDWSDGNKDYADSVKGRFTISRDNSKNTVYLQMNSLRPEDTAVYYCAADTPPWGPMIYIESYDSWGQGTLVTVSS
notes: 21F06 + A14P, A74S, K83R, Q108L; also called HER3MS0046; 21F06 basic variant
In assay [29], B6 came in with an IC50 of 280 pM.

B7: HER3MS00047 (VHH)
VHH: EVQLVESGGGLVQPGGSLRLSCAASGRTYYLNAMGWFRQAPGKDREFVAAIDWSDGNKDYADSVKGRFTISRDNSKNTVYLQMNSLRPEDTAVYYCAADTPPWGPMIYIESYDSWGQGTLVTVSS
notes: 21F06 basic + G40A; also called HER3MS0047
Regarding B7, the half-maximal inhibitory concentration (IC50) in assay [29] stood at 210 pM. This IC50 and that of the molecule before are within 1.5-fold of each other.

B8: HER3MS00048 (VHH)
VHH: EVQLVESGGGLVQPGGSLRLSCAASGRTYYLNAMGWFRQGPGKEREFVAAIDWSDGNKDYADSVKGRFTISRDNSKNTVYLQMNSLRPEDTAVYYCAADTPPWGPMIYIESYDSWGQGTLVTVSS
notes: 21F06 basic + D44E; also called HER3MS0048
B8 displayed a 50% inhibitory concentration (IC50) in [29] of 270 pM. This IC50 and that of the molecule before are within 1.5-fold of each other.
